The target of experiment [1] is T1, soluble CD14 protein (sCD14, aa 1-352) (human, UniProt P08571 20-352).
T1 sequence (looked up): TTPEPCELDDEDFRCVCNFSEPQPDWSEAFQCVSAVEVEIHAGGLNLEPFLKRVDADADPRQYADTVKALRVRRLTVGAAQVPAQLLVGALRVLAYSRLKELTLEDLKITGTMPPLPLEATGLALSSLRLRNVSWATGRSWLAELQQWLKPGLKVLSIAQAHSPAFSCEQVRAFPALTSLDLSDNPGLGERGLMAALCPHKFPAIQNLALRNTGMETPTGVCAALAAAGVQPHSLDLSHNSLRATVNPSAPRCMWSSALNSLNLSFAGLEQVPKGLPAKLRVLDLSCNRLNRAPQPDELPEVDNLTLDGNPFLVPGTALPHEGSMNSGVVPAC
Nature of the experiment: pull-down.

Experiment [2] concerns the target T1, soluble CD14 protein (sCD14, aa 1-352). Nature of the experiment: ELISA.

B1: GST-HMGB1 (natural protein, human, UniProt P09429 1-215, looked up)
chain: MGKGDPKKPRGKMSSYAFFVQTCREEHKKKHPDASVNFSEFSKKCSERWKTMSAKEKGKFEDMAKADKARYEREMKTYIPPKGETKKKFKDPNAPKRPPSAFFLFCSEYRPKIKGEHPGLSIGDVAKKLGEMWNNTAADDKQPYEKKAAKLKEKYEKDIAAYRAKGKPDAAKKGVVKAEKSKKKKEEEEDEEDEEDEEEEEDEEDEDEEEDDDDE
For the molecule B1, in experiment [1], the binding result is “binds”.

B2: 6-His-tagged HMGB1 B box protein (aa 88-162) (domain or fragment, human, UniProt P09429 88-162, looked up)
chain: KFKDPNAPKRPPSAFFLFCSEYRPKIKGEHPGLSIGDVAKKLGEMWNNTAADDKQPYEKKAAKLKEKYEKDIAAY
As to B2, the binding result in experiment [2] was “binds”.

(Values after paper PMC3193378 (European Journal of Immunology, 2011).)
